Residue numbers refer to the chain shown, from its start. Bounds are passed on as bounds.

The chains are these.
T1: cynomolgus monkey PD1 human Fc tagged recombinant protein (cynomolgus monkey, UniProt Q15116 25-170 (human entry), limits assumed)
T1 construct: also called cyno PD1-Fc; cyno PD1; not shown: human Fc tag
T1 chain: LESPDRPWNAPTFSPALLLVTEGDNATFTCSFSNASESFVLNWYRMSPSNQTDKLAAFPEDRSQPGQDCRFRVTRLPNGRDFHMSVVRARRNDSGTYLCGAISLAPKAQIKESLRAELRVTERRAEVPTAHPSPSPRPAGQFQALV

T2: rhesus VEGFR2 protein (rhesus monkey)
T2 construct: Recombinant protein used in ELISA; also called rhesus monkey VEGFR2; rh VEGFR2
T2 chain: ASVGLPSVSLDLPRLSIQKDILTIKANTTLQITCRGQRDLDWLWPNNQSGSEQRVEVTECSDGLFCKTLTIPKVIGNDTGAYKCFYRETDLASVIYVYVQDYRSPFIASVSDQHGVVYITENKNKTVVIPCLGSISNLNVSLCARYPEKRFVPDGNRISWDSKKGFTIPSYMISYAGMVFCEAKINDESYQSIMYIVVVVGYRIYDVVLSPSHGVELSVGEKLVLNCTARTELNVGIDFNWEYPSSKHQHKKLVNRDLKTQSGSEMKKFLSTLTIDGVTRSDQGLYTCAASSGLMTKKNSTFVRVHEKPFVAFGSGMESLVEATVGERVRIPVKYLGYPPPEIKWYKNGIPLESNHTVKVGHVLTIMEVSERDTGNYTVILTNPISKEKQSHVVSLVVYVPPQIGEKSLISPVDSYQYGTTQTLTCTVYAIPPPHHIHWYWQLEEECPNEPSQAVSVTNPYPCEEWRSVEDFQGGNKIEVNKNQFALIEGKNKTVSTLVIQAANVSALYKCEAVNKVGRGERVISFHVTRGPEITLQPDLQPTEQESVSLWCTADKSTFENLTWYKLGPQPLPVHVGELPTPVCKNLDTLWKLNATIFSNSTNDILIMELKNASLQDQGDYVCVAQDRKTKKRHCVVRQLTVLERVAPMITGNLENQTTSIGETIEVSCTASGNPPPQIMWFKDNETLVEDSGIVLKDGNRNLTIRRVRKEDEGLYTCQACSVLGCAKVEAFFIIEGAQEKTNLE

B1: MAB06.8.6 IgG1 null (antibody, V domains shown)
VH: EVQLVESGGGLVQPGGSLRLSCAASGFTFSSYLMSWVRQAPGKGLEWVATISGGGSNKYYVDSVKGRFTISRDNAKNSLYLQMNSLRAEDTAVYYCARQLYYYDYWGQGTTVTVSS
VL: DIQMTQSPSSLSASVGDRVTITCRASQESGIWLSWYQQKPGKAPKLLIYAASSLQSGVPSRFSGSGSGTDFTLTISSLQPEDFATYYCQQVSVTPFTFGGGTKVEIK
notes: Human IgG1 null format; only variable domains are tied to the clone
B2: MAB06.8.2 IgG1 null (antibody, V domains shown)
VH: B1 VH with L100V, Y103F
VL: B1 VL
notes: as for B1
B3: hMAb005 Fab (Fab, V domains shown)
VH: B1 VH with L33M, S56A, K58T, V61P, Y103F
VL: DIQMTQSPSSLSASVGDRVTITCLASQTIGTWLTWYQQKPGKAPKLLIYTATSLADGVPSRFSGSGSGTDFTLTISSLQPEDFATYYCQQVYSIPWTFGGGTKVEIK
notes: Human IgG1-kappa Fab, periplasmically expressed in E. coli, detected via c-myc; also called hMAb005 v-domains expressed as human IgG1 Fab; positive control hMAb005 Fab
B4: MAB02D08 Fab (Fab, V domains shown)
VH: B1 VH with L33M, S56A, K58T, V61P, Y103F
VL: B3 VL with T28E, I29S, T31I, T34S
notes: Library-derived clone screened as human IgG1-kappa Fab in E. coli periplasmic extract; also called MAB02D08 (periprep Fab)
B5: MAB02A03 Fab (Fab, V domains shown)
VH: B1 VH with L33M, S56A, K58T, V61P, Y103F
VL: B3 VL with P8S, T28G, T31P, T34S
notes: Library-derived clone screened as human IgG1-kappa Fab in E. coli periplasmic extract; also called MAB02A03 (periprep Fab)
B6: MAB02B03 Fab (Fab, V domains shown)
VH: B1 VH with L33M, S56A, K58T, V61P, Y103F
VL: B3 VL with T28P, I29L, T31I, T34S
notes: Library-derived clone screened as human IgG1-kappa Fab in E. coli periplasmic extract; also called MAB02B03 (periprep Fab)
B7: MAB05E08 Fab (Fab, V domains shown)
VH: B1 VH with L33M, S56A, K58T, V61P, Y103F
VL: B3 VL with Y92S, S93V, I94T, W96F
notes: Library-derived clone screened as human IgG1-kappa Fab in E. coli periplasmic extract; also called MAB05E08 (periprep Fab)
B8: MAB05G03 Fab (Fab, V domains shown)
VH: B1 VH with L33M, S56A, K58T, V61P, Y103F
VL: B3 VL with Y92A, S93E, I94L, W96F, T97G
notes: Library-derived clone screened as human IgG1-kappa Fab in E. coli periplasmic extract; also called MAB05G03 (periprep Fab)

T4 sequence (Q15116 25-170 limits assumed): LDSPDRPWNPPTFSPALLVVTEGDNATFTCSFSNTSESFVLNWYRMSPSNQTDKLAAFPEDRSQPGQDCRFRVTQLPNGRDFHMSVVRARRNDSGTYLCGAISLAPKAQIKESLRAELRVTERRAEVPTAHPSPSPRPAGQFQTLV

The target in one assay is T3, human VEGFR2 protein (human, UniProt P35968 20-764).
T3 construct: Recombinant protein used in ELISA; also called hu VEGFR2; KDR
Put plainly: direct titration ELISA, IgG1 null on VEGFR2 protein (FIG. 12C). In general terms: ELISA stands for enzyme-linked immunosorbent assay.
As for B1, the binding result is given as “binds”.
For the molecule B2, the binding result is given as “binds”.

Another assay addresses T4, human PD1 human Fc tagged recombinant protein (human, UniProt Q15116 25-170).
T4 construct: also called human PD1-Fc; hu PD1; not shown: human Fc tag
Description: periprep Fab direct binding ELISA (FIG. 1).
With B3, the binding result is “binds”.

The next assay deals with T1, cynomolgus monkey PD1 human Fc tagged …. Put plainly: periprep Fab direct binding ELISA (FIG. 1).
On to B4, for which the binding result is “binds”.
Turning to B3, the binding result is given as “binds”.
The same measure, in the same setting: then B5, with “binds”; and B6, with “binds”.
Still for that read-out and setting: under B7 stands “binds”.
As to B8, the binding result is on record as “binds”.

The next assay addresses T2, rhesus VEGFR2 protein. Put plainly: periprep Fab direct binding ELISA (FIG. 1).
On to B4, for which the binding result was “binds”.
Consider B5, for which the binding result was “binds”.
As for B6, the binding result is given as “binds”.
On the same count and under the same terms, under B7 stands “binds”; under B8, “binds”.

The target in the next assay is T3, human VEGFR2 protein. Description: periprep Fab direct binding ELISA (FIG. 1).
For the molecule B4, the binding result was “binds”.
Consider B5, for which the binding result was “binds”.
For the molecule B6, the binding result is “binds”.
On to B7, for which the binding result is listed as “binds”.
Regarding B8, the binding result is given as “binds”.

For another assay, the target named is T5, biotinylated human PD1-His/AviTag (human, UniProt Q15116 25-170, limits assumed, biotinylated).
T5 construct: also called human PD1 protein (Alphascreen); not shown: His/AviTag
T5 sequence (Q15116 25-170 limits assumed): as above
Put plainly: Alphascreen epitope competition, Fab periprep; competitor hMAb005 IgG1 null on biotinylated human PD1-His/AviTag. The method, then: FIG. 2A-FIG. 2B. Epitope competition analysis of Fab proteins in Alphascreen Anti-PD1 clones were expressed as Fab in E. coli and peripreps were applied in an epitope competition assay using Alphascreen technology.
The AlphaScreen assay (Perkin Elmer) was performed in a 25 μl final volume in 384-well white microtiter plates (Greiner). The reaction buffer contained 1×PBS pH 7.3 (Oxoid, Cat. nr. BR0014G) and 0.05% (v/v) Tween® 20 (Sigma, Cat. nr. P9416). Periprep samples diluted in reaction buffer were incubated with biotinylated human PD1-His/AviTag at 0.6 nM final concentration for 20 minutes at room temperature. […] The emission of light was measured in the EnVision multilabel plate reader (Perkin Elmer) and analysed using the EnVision manager software. Values were reported as Counts Per Second (CPS) and corrected for crosstalk. Signal reduction percentages were calculated relative to the irrelevant sample.
(Bead proximity is the source of the signal in Alpha formats.)
B4: the “percentage signal reduction of hMAb005/PD1 interaction” value is more than 75%.
The same measure, in the same setting: under B5 stands 75%; under B6, more than 75%; under B7, more than 75%.
For B8, the “percentage signal reduction of hMAb005/PD1 interaction” value was more than 75%.

The values above are taken from US20240101674A1 (OTTIMO PHARMA, published 2024).
